# Experimental data reported in the DeepSol protein solubility set.
# Experiment: soluble on expression in E. coli; label from the status in PepcDB or PDB records
row,Sequence,soluble on expression in E. coli
1,MGSDKIHHHHHHMPEQQKSVTGTSLFERYTLSQAYDEMFTAEGDIRPAYSELARLLCSISPAELQQRQRYADLTFLNQGITFTVYGNDAGVERVFPYDLLPRIIAADEWQHIERGLHQRIVALNLFLHDVYHNENILRDGIIPRHLVYSCRHYRREMRGLTVPRGVYTAIVGTDLVRLPDGQFVVLEDNLRVPSGVSYMLTNRAVMKRALPRLFGAYGVRPIDHYGQALLATLRALAPAHRPEPTIVLLTPGVFNSAYFEHTFLARQMGIELVEGRDLLVHNNIVYMRTTKGLQRVDVIYRRIDDDFLDPMIFRPDSVLGVPGLFNAYRAGTVVLANAIGTGVADDKAIYAYVPDIIRYYLGEEPILPNVTTYLCDRPDECAYVLEHLGDLVVKAVGESGGYDMLIGPHSTREEQAQFAERIRAQPRNYIAQPTLQLSQAPCFIDGVIEPRHVDLRPFVLFDGERTTIVPGGLTRVALRRGSLVVNSSQGGGSKDTWVLY,not soluble
2,MNKLTIIVTYYNAEEYITGCLESIKQQRTQDFNLIIVNDGSTDQSKKLMDEAIKDYDKNIRFIDLDENSGHAHARNIALEEVETPYFMFLDADDELASYAITFYLEKFNNTDGLIAPIHSFTTQRPQFVDLDRVRVEYFNAKENINSFLRKQSACNIIFRTAIVRAHHIRFNENLNTYVDWSFVLEYMKYVNKFVRIFNFPFYFRGEVYDPFETLTLSEQNFDILFKDYVNSFYDAIKRATNPKVREFIVTKMGNKIANEFEPTRYDINERYQTHKDTLVELSKFLHVHLVKNQKLINKIETILLMNNETDKAFKVNQFRKTLRHVKNIVLRRKNKERSLYDLTDKEDNVKPKTIVFESFGGKNYSDSPKYIYEYMQKYYPNYRYIWSFKNPDKNVVPGSAEKVKRNSAEYYQAYSEASHWVSNARTPLYLNKKENQTYIQTWHGTPLKRLANDMKVVRMPGTTTPKYKRNFNRETSRWDYLISPNRYSTEIFRSAFWMDEERILEIGYPRNDVLVNRANDQEYLDEIRTHLNLPSDKKVIMYAPTWRDDEFVSKGKYLFELKIDLDNLYKELGDDYVILLRMHYLISNALDLSGYENFAIDVSNYNDVSELFLISDCLITDYSSVMFDYGILKRPQFFFAYDIDKYDKGLRGFYMNYMEDLPGPIYTEPYGLAKELKNLDKVQQQYQEKIDAFYDRFCSVDNGKASQYIGDLIHKDIKEQLEHHHHHH,soluble
3,FPSKSKMFEALIERIEQTLTSYINASKRKENSTALAVKAILYTVIEFARKNPGVTRILTGHALMFENSELKLRVAKFFDGLELQFVNILQMRKLREGKAFQDERALAGYLVTFCEGQFLRLVRSNFSSNPHQHFEKQWSLIKPLFE,not soluble
4,MEIKGESMQKSKFRRICVFCGSSQGKKSSYQDAAVDLGNELVSRNIDLVYGGGSIGLMGLVSQAVHDGGRHVIGIIPKTLMPRELTGETVGEVRAVADMHQRKAEMAKHSDAFIALPGGYGTLEELLEVITWAQLGIHDKPVGLLNVDGYYNSLLSFIDKAVEEGFISPTAREIIVSAPTAKELVKKLEEYAPCHERVATKLCWEMERIGYSSEE,soluble
5,MSLSPARAQEEISRLQQQIKQWDDDYWKEGKSEVEDGVYDQLSARLTQWQRCFGSEPRDVMMPPLNGAVMHPVAHTGVRKMVDKNALSLWMRERSDLWVQPKVDGVAVTLVYRDGKLNKAISRGNGLKGEDWTQKVSLISAVPQTVSGPLANSTLQGEIFLQREGHIQQQMGGINARAKVAGLMMRQDDSDTLNSLGVFVWAWPDGPQLMSDRLKELATAGFTLTQTYTRAVKNADEVARVRNEWWKAELPFVTDGVVVRAAKEPESRHWLPGQAEWLVAWKYQPVAQVAEVKAIQFAVGKSGKISVVASLAPVMLDDKKVQRVNIGSVRRWQEWDIAPGDQILVSLAGQGIPRIDDVVWRGAERTKPTPPENRFNSLTCYFASDVCQEQFISRLVWLGAKQVLGLDGIGEAGWRALHQTHRFEHIFSWLLLTPEQLQNTPGIAKSKSAQLWHQFNLARKQPFTRWVMAMGIPLTRAALNASDERSWSQLLFSTEQFWQQLPGTGSGRARQVIEWKENAQIKKLGSWLAAQQITGFEEGHHHHHH,soluble
6,MAHHHHHHMLRGKSGLTASSSLEGGSEFSERIGNTLSSFLSESASLEVIGNELADNIANEIVGSLQNDSASFLQSEFDVKAQLKATAKKVLTEALKAALEPTEKIVASTIKPPRIKEDIYFLLSPVVRSLFNKVEDVLHKPVSDDIWNYESRGSSSEEEDEVDSDEDFLD,soluble
7,MSLKPCFGYIRVSTERQGDGASLEAQKDAITGFASQNNLEIVRWFEERETASKTGRPIFGEMMNALVSGAAEGLILHKVDRTARNFSDWSRLHEVAKLGIDVYFAADSLDFGTRGGQLLADIQMALAADYSRNLSQEVKKGIYGRIKNGVYPFRAPLGYLDTGGGNVKAIDPIKAPLVSQVFELYCSGDYSITSLTEEMQRRGLKGVGERPVVRRNIESILRNPFYCGKMLVRGKLYDGAHEPLISTAQYRRVAAIKAQRFVKKSTKHELLFRGLFTCGACGQVLTGERQKAHVYYRCHTPRCGRGAIREDRLEETLREKLARLEISPEDQVTLESDIRAWLNKDGVKDIEKSLRLRISDATARLDRLTDLLVDGAIDKPAYELRKQNVEFEKQQLREELDALERSRAEEKDLKALLALAADLSSLYDAAPPPKKRELIRNCLVAPCVMDGQLVSHPADWLVSLRKSPKTDEKSHSAPQAILEGVRVMHAVVDVEGHHHHHH,soluble
8,MSQMMQMYQQVGPAQFSAMIGQFAPYFASIAPQFVELRPGYAEVTFPKRREVLNHIGTVHAIALCNAAELAAGTMTDASIPAGHRWIPRGMTVEYLAKATGDVRAVADGSQIDWQATGNLVVPVVAYVDDKPVFRAEITMYVSQA,soluble
9,MSLDVLSVSEINAQIKALLEATFLQVRVQGEVSNLTIHKVSGHAYFSLKDSQSVIKCVLFKGNANRLKFALKEGQEVVVFGGISVYVPRGDYQINCFEIEPKDIGSLTLALEQLKEKLRLKGYFDEENKLPKPHFPKRVAVITSQNSAAWADMKKIASKRWPMCELVCINTLMQGEGCVQSVVESIVYADSFHDTKNAFDAIVVARGGGSMEDLYSFNDEKIADALYLAKTFSMSAIGHESDFLLSDLVADLRASTPSNAMEILLPSSDEWLQRLDGFNVKLHRSFKTLLHQKKAHLEHLVASLKRLSFENKHHLNALKLEKLKIALENKTLEFLRFKKTLLEKISTQTLTSPFLQTKTERLNRLENALKLAHANLKLPQFGALVSKNNQAIELEALKRGDKIELSNEKTRASAEILSVDRVEGHHHHHH,soluble
10,MGSDKIHHHHHHMMNIPPFINTIIGQQPYPLLFAIISGSHLYGFPSPDSDYDLRGVHILPVEEVVGLETGNETIEVSEIREALEIDLVTHDVKKFFLMLLKKNGYVLEQLYSPLVLTTSPEAEELKFIAKGCITRNHYYHYIGFAATQWKLFENERTYRLKPLLYVYRVLLTGIYLMQTGIVEANLMKLNEVFNLPYIHDLITQKIAGKEKSVVSNVNVDFHQIEYERLRHKLQEVYESSRLPEVPSANAALHNLLVRLRTNVKLRK,not soluble
11,KKSPSAGSGSNGGNKKISQEEGEDNGGEDNKKLRGALSSAILSEKPNVKWEDVAGLEGAKEALKEAVILPVKFPHLFKGNRKPTSGILLYGPPGTGKSYLAKAVATEANSTFFSVSSSDLVSKWMGESEKLVKQLFAMARENKPSIIFIDQVDALTGTRGEGESEASRRIKTELLVQMNGVGNDSQGVLVLGATNIPWQLDSAIRRRFERRIYIPLPDLAARTTMFEINVGDTPSVLTKEDYRTLGAMTEGYSGSDIAVVVKDALMQPIRKIQSATHFKDVSTEDDETRKLTPSSPGDDGAIEMSWTDIEADELKEPDLTIKDFLKAIKSTRPTVNEDDLLKQEQFTRDFGQEGN,soluble
12,MSQEIRQNEKISYRIEGPFFIIHLINPDNLNALEGEDYIYLGELLELADRNRDVYFTIIQSSGRFFSSGADFKGIAKAQGDDTNKYPSETSKWVSNFVARNVYVTDAFIKHSKVLICCLNGPAIGLSAALVALCDIVYSINDKVYLLYPFANLGLITEGGTTVSLPLKFGTNTTYECLMFNKPFKYDIMCENGFISKNFNMPSSNAEAFNAKVLEELREKVKGLYLPSCLGMKKLLKSNHIDAFNKANSVEVNESLKYWVDGEPLKRFRQLGSKQRKHRL,soluble
